Experimental data: patent publication US20140107043A1 (INSTITUT PASTEUR, published 2014)
Where no end group is shown, it is not given here. [ ]: non-standard residue; d: D form. Phe(4-CH2COOH) = N[C@@H](Cc1ccc(CC(=O)O)cc1)C(=O)O; GABA = NCCCC(=O)O

Experiments:
Experiment in all cases: cell-based or functional assay
[1] = target: envelope gp120 of HIV-1/Ba-L (R5-tropic strain), on virus (HIV-1 strain Ba-L)
[2] = target: envelope gp120 of HIV-1-LAI (X4-tropic strain), on virus (HIV-1 strain LAI, UniProt P03377 33-516, limits assumed)
[3] = target: envelope gp120 of HIV-1 92HT599 (clade B, X4), on virus (HIV-1 strain 92HT599)
[4] = target: envelope gp120 of HIV-1 92US723 (clade B, R5/X4), on virus (HIV-1 strain 92US723)
[5] = target: envelope gp120 of HIV-1 96USHIPS4 (clade B, R5/X4), on virus (HIV-1 strain 96USHIPS4)
[6] = target: envelope gp120 of HIV-1 92UG029 (clade A, X4), on virus (HIV-1 strain 92UG029)
[7] = target: envelope gp120 of HIV-1 SF162 (clade B, R5), on virus (HIV-1 strain SF162, UniProt P19550 32-502)
[8] = target: envelope gp120 of HIV-1 98IN017 (clade C, X4), on virus (HIV-1 strain 98IN017)

B1: P3pF (H-gamma-Abu-S-pF-D-pF-S-pF-D-pF-S-pF-D-pF-S-OH) (peptide)
peptide: [GABA]S[Phe(4-CH2COOH)]D[Phe(4-CH2COOH)]S[Phe(4-CH2COOH)]D[Phe(4-CH2COOH)]S[Phe(4-CH2COOH)]D[Phe(4-CH2COOH)]S-OH
modifications: N-terminus assumed
SMILES: NCCCC(=O)N[C@@H](CO)C(=O)N[C@@H](Cc1ccc(CC(=O)O)cc1)C(=O)N[C@@H](CC(=O)O)C(=O)N[C@@H](Cc1ccc(CC(=O)O)cc1)C(=O)N[C@@H](CO)C(=O)N[C@@H](Cc1ccc(CC(=O)O)cc1)C(=O)N[C@@H](CC(=O)O)C(=O)N[C@@H](Cc1ccc(CC(=O)O)cc1)C(=O)N[C@@H](CO)C(=O)N[C@@H](Cc1ccc(CC(=O)O)cc1)C(=O)N[C@@H](CC(=O)O)C(=O)N[C@@H](Cc1ccc(CC(=O)O)cc1)C(=O)N[C@@H](CO)C(=O)O
> 500 nM: ED50, HIV-1 replication in PBMC [1] | ED70, HIV-1 replication in PBMC [1] | ED90, HIV-1 replication in PBMC [1] | ED50, HIV-1 replication in PBMC [2] | ED70, HIV-1 replication in PBMC [2] | ED90, HIV-1 replication in PBMC [2]

B2: P3Y (H-gamma-Abu-S-Y-D-Y-S-Y-D-Y-S-Y-D-Y-S-OH) (peptide)
peptide: SYDYSYDYSYDYS
modifications: N-terminal gamma-aminobutyric acid (NH2-(CH2)3-CO-)
> 500 nM: ED50, HIV-1 replication in PBMC [1] | ED70, HIV-1 replication in PBMC [1] | ED90, HIV-1 replication in PBMC [1] | ED50, HIV-1 replication in PBMC [2] | ED70, HIV-1 replication in PBMC [2] | ED90, HIV-1 replication in PBMC [2]

B3: E13 (H-gamma-Abu-(Glu)13-OH) (peptide)
peptide: EEEEEEEEEEEEE
modifications: N-terminal gamma-aminobutyric acid (NH2-(CH2)3-CO-)
> 500 nM: ED50, HIV-1 replication in PBMC [1] | ED70, HIV-1 replication in PBMC [1] | ED90, HIV-1 replication in PBMC [1] | ED50, HIV-1 replication in PBMC [2] | ED70, HIV-1 replication in PBMC [2] | ED90, HIV-1 replication in PBMC [2]

B4: P3YSO3 (H-gamma-Abu-S-YSO3-D-YSO3-S-YSO3-D-YSO3-S-YSO3-D-YSO3-S-OH) (peptide)
peptide: SXDXSXDXSXDXS
modifications: N-terminal gamma-aminobutyric acid (NH2-(CH2)3-CO-); sulfotyrosine (YSO3) at the six X positions of S-X-D-X-S-X-D-X-S-X-D-X-S
> 500 nM: ED50, HIV-1 replication in PBMC [3] | ED70, HIV-1 replication in PBMC [3] | ED90, HIV-1 replication in PBMC [3] | ED50, HIV-1 replication in PBMC [4] | ED70, HIV-1 replication in PBMC [4] | ED90, HIV-1 replication in PBMC [4] | ED50, HIV-1 replication in PBMC [5] | ED70, HIV-1 replication in PBMC [5] | ED90, HIV-1 replication in PBMC [5] | ED50, HIV-1 replication in PBMC [6] | ED70, HIV-1 replication in PBMC [6] | ED90, HIV-1 replication in PBMC [6] | ED50, HIV-1 replication in PBMC [7] | ED70, HIV-1 replication in PBMC [7] | ED90, HIV-1 replication in PBMC [7] | ED50, HIV-1 replication in PBMC [8] | ED70, HIV-1 replication in PBMC [8] | ED90, HIV-1 replication in PBMC [8]
